Measured values reported in PMC7768682 (Proceedings of the National Academy of Sciences of the …, 2020).
Ends that are not written are not given here.

What was measured:
Assay in all cases: BLI
[1] = biological target: talin head t1-400 (human, UniProt Q9Y490 1-400)
[2] = biological target: talin head t1-405 (human, UniProt Q9Y490 1-405)
[3] = biological target: talin head t1-435 (human, UniProt Q9Y490 1-435)

Measured: binding result

talin head t1-400, sequence (Q9Y490 1-400): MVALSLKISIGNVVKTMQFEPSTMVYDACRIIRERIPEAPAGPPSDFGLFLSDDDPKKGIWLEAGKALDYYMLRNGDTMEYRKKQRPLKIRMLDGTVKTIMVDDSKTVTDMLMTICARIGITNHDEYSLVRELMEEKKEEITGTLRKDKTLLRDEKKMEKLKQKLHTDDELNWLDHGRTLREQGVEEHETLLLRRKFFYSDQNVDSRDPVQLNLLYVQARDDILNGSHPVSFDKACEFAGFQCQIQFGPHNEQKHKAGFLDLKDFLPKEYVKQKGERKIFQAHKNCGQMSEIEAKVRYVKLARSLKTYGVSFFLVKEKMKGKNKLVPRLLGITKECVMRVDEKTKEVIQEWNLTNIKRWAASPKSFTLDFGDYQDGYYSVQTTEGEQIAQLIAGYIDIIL
talin head t1-405, sequence (Q9Y490 1-405): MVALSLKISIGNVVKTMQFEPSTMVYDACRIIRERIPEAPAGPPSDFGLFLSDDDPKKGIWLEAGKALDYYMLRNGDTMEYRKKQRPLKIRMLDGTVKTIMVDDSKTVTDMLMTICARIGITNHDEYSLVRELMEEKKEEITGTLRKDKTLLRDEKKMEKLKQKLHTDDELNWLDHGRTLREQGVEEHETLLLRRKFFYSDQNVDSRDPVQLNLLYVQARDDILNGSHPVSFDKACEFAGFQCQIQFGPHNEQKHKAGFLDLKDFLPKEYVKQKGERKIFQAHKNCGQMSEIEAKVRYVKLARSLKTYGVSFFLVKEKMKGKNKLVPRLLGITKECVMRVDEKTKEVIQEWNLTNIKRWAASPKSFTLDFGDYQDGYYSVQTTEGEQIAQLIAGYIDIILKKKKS
talin head t1-435, sequence (Q9Y490 1-435): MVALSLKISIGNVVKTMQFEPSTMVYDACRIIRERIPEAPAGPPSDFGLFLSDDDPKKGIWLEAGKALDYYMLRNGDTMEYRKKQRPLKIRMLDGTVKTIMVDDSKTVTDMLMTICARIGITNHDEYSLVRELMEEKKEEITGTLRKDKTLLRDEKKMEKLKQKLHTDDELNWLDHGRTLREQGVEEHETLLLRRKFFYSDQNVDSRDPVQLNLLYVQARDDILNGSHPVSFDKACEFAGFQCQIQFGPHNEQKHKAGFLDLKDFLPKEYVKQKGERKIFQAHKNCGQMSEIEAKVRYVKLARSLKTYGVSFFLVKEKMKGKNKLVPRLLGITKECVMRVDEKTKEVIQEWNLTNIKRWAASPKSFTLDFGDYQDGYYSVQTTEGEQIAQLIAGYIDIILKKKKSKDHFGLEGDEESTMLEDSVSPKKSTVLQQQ

{GST}-GSKLLITIHDRKEFAKFEEERARAKWDTANNPLYKEATSTFTNITYRGT (domain or fragment) [GST-integrin β3 cytoplasmic tail fusion, wild type (WT-β3)]
binds: all assays above
